In paper PMC9433092, “Closely related type II-C Cas9 orthologs recognize diverse PAMs” one finds indel frequency data, which are given here for 19 molecules.

This data set deals with T1, Nsp2Cas9 (Neisseria sp. WF04, UniProt A0A4Y9GBC9).
T1 sequence: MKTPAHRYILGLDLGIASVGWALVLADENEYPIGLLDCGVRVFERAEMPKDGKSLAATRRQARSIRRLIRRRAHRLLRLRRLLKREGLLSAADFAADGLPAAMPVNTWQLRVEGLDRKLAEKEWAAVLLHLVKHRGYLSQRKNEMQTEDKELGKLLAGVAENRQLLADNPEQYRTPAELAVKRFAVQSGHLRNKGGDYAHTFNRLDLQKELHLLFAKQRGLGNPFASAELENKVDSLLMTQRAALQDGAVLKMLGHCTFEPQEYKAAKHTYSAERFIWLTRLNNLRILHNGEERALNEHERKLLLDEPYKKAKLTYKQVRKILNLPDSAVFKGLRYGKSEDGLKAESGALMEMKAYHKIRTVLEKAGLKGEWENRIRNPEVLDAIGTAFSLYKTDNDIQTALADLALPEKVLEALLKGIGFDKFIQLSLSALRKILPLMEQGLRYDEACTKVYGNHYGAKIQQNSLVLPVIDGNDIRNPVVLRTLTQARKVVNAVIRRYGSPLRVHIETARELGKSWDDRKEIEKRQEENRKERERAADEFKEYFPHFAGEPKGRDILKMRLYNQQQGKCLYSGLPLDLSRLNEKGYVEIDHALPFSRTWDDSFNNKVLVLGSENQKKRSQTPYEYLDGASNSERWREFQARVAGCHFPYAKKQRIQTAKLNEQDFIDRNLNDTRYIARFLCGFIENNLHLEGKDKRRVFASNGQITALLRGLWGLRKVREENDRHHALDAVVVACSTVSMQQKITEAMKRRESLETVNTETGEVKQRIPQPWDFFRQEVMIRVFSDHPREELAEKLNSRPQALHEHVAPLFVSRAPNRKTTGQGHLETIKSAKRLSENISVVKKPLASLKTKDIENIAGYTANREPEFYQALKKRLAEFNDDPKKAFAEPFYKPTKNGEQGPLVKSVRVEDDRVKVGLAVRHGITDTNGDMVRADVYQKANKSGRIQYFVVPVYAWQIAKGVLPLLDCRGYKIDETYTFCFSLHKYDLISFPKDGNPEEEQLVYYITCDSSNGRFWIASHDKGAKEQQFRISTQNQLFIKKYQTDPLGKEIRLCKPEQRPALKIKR
Nature of the data set: HEK293T cells. The conditions noted are these: tags: NLS and HA tags, kept.

B1: AAVS1 A33 (mixed)
RNA: GUGAGAAUGGUGCGUCCUAGGUGGUUGUAGCUCCCUUUCUCAUUUCGGAAACGAAAUGAGAACCGUUGCUACAAUAAGGCCGUCUGAAAAGAUGUGCCGCAACGCUCUGCCCCUUAAAGCUUCUGCUUUAAGGGGCAUCGUUUAUUUUUUU
DNA 1: TGAGAATGGTGCGTCCTAGGTGTTCACCAG
DNA 2: CTGGTGAACACCTAGGACGCACCATTCTCA
For the molecule B1, the indel frequency is 17.1 % indels.

B2: GRIN2B G5 (mixed)
RNA: GUUUACAAUGAGAGACAAUACUGGUUGUAGCUCCCUUUCUCAUUUCGGAAACGAAAUGAGAACCGUUGCUACAAUAAGGCCGUCUGAAAAGAUGUGCCGCAACGCUCUGCCCCUUAAAGCUUCUGCUUUAAGGGGCAUCGUUUAUUUUUUU
DNA 1: TTTACAATGAGAGACAATACTGGCATCCAA
DNA 2: TTGGATGCCAGTATTGTCTCTCATTGTAAA
As for B2, the indel frequency was 18.4 % indels.

B3: GRIN2B G1 (mixed)
RNA: GCCCAUCAAGCUGGGCUCCAAGGGUUGUAGCUCCCUUUCUCAUUUCGGAAACGAAAUGAGAACCGUUGCUACAAUAAGGCCGUCUGAAAAGAUGUGCCGCAACGCUCUGCCCCUUAAAGCUUCUGCUUUAAGGGGCAUCGUUUAUUUUUUU
DNA 1: CCCATCAAGCTGGGCTCCAAGGAGGGCCAA
DNA 2: TTGGCCCTCCTTGGAGCCCAGCTTGATGGG
Molecule B3 returned an indel frequency of 18.6 % indels.

B4: AAVS1 A46 (mixed)
RNA: GAAGCCUGAGCGCCUCUCCUGGGGUUGUAGCUCCCUUUCUCAUUUCGGAAACGAAAUGAGAACCGUUGCUACAAUAAGGCCGUCUGAAAAGAUGUGCCGCAACGCUCUGCCCCUUAAAGCUUCUGCUUUAAGGGGCAUCGUUUAUUUUUUU
DNA 1: AAGCCTGAGCGCCTCTCCTGGGCTTGCCAA
DNA 2: TTGGCAAGCCCAGGAGAGGCGCTCAGGCTT
Turning to B4, the indel frequency was 14.9 % indels.

B5: AAVS1 A30 (mixed)
RNA: GAGGGAGGAGAGAUGCCCGGAGAGUUGUAGCUCCCUUUCUCAUUUCGGAAACGAAAUGAGAACCGUUGCUACAAUAAGGCCGUCUGAAAAGAUGUGCCGCAACGCUCUGCCCCUUAAAGCUUCUGCUUUAAGGGGCAUCGUUUAUUUUUUU
DNA 1: AGGGAGGAGAGATGCCCGGAGAGGACCCAG
DNA 2: CTGGGTCCTCTCCGGGCATCTCTCCTCCCT
On to B5, for which the indel frequency is 12.9 % indels.

B6: VEGFA V54 (mixed)
RNA: GCUGUCCCCUCCUGAGCCCAUGGGUUGUAGCUCCCUUUCUCAUUUCGGAAACGAAAUGAGAACCGUUGCUACAAUAAGGCCGUCUGAAAAGAUGUGCCGCAACGCUCUGCCCCUUAAAGCUUCUGCUUUAAGGGGCAUCGUUUAUUUUUUU
DNA 1: CTGTCCCCTCCTGAGCCCATGGGCAACCAT
DNA 2: ATGGTTGCCCATGGGCTCAGGAGGGGACAG
B6 returned an indel frequency of 37 % indels.

B7: EMX1 E1 (mixed)
RNA: GAAUGUGGUGCUUGAGAAGUGGAGUUGUAGCUCCCUUUCUCAUUUCGGAAACGAAAUGAGAACCGUUGCUACAAUAAGGCCGUCUGAAAAGAUGUGCCGCAACGCUCUGCCCCUUAAAGCUUCUGCUUUAAGGGGCAUCGUUUAUUUUUUU
DNA 1: AATGTGGTGCTTGAGAAGTGGATGGCCCAA
DNA 2: TTGGGCCATCCACTTCTCAAGCACCACATT
For B7, the indel frequency was 7.8 % indels.

B8: AAVS1 A3 (mixed)
RNA: GCAGCGCAAAGUGACAAUGGCCGUUGUAGCUCCCUUUCUCAUUUCGGAAACGAAAUGAGAACCGUUGCUACAAUAAGGCCGUCUGAAAAGAUGUGCCGCAACGCUCUGCCCCUUAAAGCUUCUGCUUUAAGGGGCAUCGUUUAUUUUUUU
DNA 1: GCAGCGCAAAGTGACAATGGCCAGGGCC
DNA 2: GGCCCTGGCCATTGTCACTTTGCGCTGC
Take B8: the indel frequency worked out at 7.81 % indels.

B9: VEGFA V18 (mixed)
RNA: GAGGGGGGUGCCGAGGACCGAAGGUUGUAGCUCCCUUUCUCAUUUCGGAAACGAAAUGAGAACCGUUGCUACAAUAAGGCCGUCUGAAAAGAUGUGCCGCAACGCUCUGCCCCUUAAAGCUUCUGCUUUAAGGGGCAUCGUUUAUUUUUUU
DNA 1: AGGGGGGTGCCGAGGACCGAAGGGCACCAA
DNA 2: TTGGTGCCCTTCGGTCCTCGGCACCCCCCT
Regarding B9, the indel frequency is 16.7 % indels.

B10: VEGFA V60 (mixed)
RNA: GAAGGGUGAGUCUCAGGCCACAGGUUGUAGCUCCCUUUCUCAUUUCGGAAACGAAAUGAGAACCGUUGCUACAAUAAGGCCGUCUGAAAAGAUGUGCCGCAACGCUCUGCCCCUUAAAGCUUCUGCUUUAAGGGGCAUCGUUUAUUUUUUU
DNA 1: AAGGGTGAGTCTCAGGCCACAGGGACCCAA
DNA 2: TTGGGTCCCTGTGGCCTGAGACTCACCCTT
In turn, B10 came in with an indel frequency of 12.1 % indels.

B11: VEGFA V21 (mixed)
RNA: GUCUCGAGGUAGCCCCAGCCCGGGUUGUAGCUCCCUUUCUCAUUUCGGAAACGAAAUGAGAACCGUUGCUACAAUAAGGCCGUCUGAAAAGAUGUGCCGCAACGCUCUGCCCCUUAAAGCUUCUGCUUUAAGGGGCAUCGUUUAUUUUUUU
DNA 1: TCTCGAGGTAGCCCCAGCCCGGGGATCCAG
DNA 2: CTGGATCCCCGGGCTGGGGCTACCTCGAGA
B11: the indel frequency was 19 % indels.

B12: AAVS1 A59 (mixed)
RNA: GCUGGGACUUGGCCAGACACUGGUUGUAGCUCCCUUUCUCAUUUCGGAAACGAAAUGAGAACCGUUGCUACAAUAAGGCCGUCUGAAAAGAUGUGCCGCAACGCUCUGCCCCUUAAAGCUUCUGCUUUAAGGGGCAUCGUUUAUUUUUUU
DNA 1: GCTGGGACTTGGCCAGACACTGAGGTCCAG
DNA 2: CTGGACCTCAGTGTCTGGCCAAGTCCCAGC
On to B12, for which the indel frequency was 16.7 % indels.

B13: AAVS1 A41 (mixed)
RNA: GAGGACUGCAUGGGUCAGCACAGGUUGUAGCUCCCUUUCUCAUUUCGGAAACGAAAUGAGAACCGUUGCUACAAUAAGGCCGUCUGAAAAGAUGUGCCGCAACGCUCUGCCCCUUAAAGCUUCUGCUUUAAGGGGCAUCGUUUAUUUUUUU
DNA 1: AGGACTGCATGGGTCAGCACAGGCTGCCAA
DNA 2: TTGGCAGCCTGTGCTGACCCATGCAGTCCT
In turn, B13 displayed an indel frequency of 10.8 % indels.

B14: AAVS1 A2 (mixed)
RNA: GUCAGCAUAGGGUGGCAAAGCCCGUUGUAGCUCCCUUUCUCAUUUCGGAAACGAAAUGAGAACCGUUGCUACAAUAAGGCCGUCUGAAAAGAUGUGCCGCAACGCUCUGCCCCUUAAAGCUUCUGCUUUAAGGGGCAUCGUUUAUUUUUUU
DNA 1: TCAGCATAGGGTGGCAAAGCCCAGGGCC
DNA 2: GGCCCTGGGCTTTGCCACCCTATGCTGA
B14 registered an indel frequency of 14.1 % indels.

B15: AAVS1 A4 (mixed)
RNA: GCUCUGACCUGCAUUCUCUCCCCGUUGUAGCUCCCUUUCUCAUUUCGGAAACGAAAUGAGAACCGUUGCUACAAUAAGGCCGUCUGAAAAGAUGUGCCGCAACGCUCUGCCCCUUAAAGCUUCUGCUUUAAGGGGCAUCGUUUAUUUUUUU
DNA 1: CTCTGACCTGCATTCTCTCCCCTGGGCC
DNA 2: GGCCCAGGGGAGAGAATGCAGGTCAGAG
Molecule B15 came in with an indel frequency of 6.61 % indels.

B16: VEGFA V36 (mixed)
RNA: GAGGAAACGACCUGGGACCACCUGUUGUAGCUCCCUUUCUCAUUUCGGAAACGAAAUGAGAACCGUUGCUACAAUAAGGCCGUCUGAAAAGAUGUGCCGCAACGCUCUGCCCCUUAAAGCUUCUGCUUUAAGGGGCAUCGUUUAUUUUUUU
DNA 1: AGGAAACGACCTGGGACCACCTGTTCCCAA
DNA 2: TTGGGAACAGGTGGTCCCAGGTCGTTTCCT
B16 returned an indel frequency of 14.6 % indels.

B17: AAVS1 A7 (mixed)
RNA: GUCUGUCCCCUCCACCCCACAGUGUUGUAGCUCCCUUUCUCAUUUCGGAAACGAAAUGAGAACCGUUGCUACAAUAAGGCCGUCUGAAAAGAUGUGCCGCAACGCUCUGCCCCUUAAAGCUUCUGCUUUAAGGGGCAUCGUUUAUUUUUUU
DNA 1: TCTGTCCCCTCCACCCCACAGTGGGGCC
DNA 2: GGCCCCACTGTGGGGTGGAGGGGACAGA
As for B17, the indel frequency is 17.4 % indels.

B18: VEGFA V17 (mixed)
RNA: GCCGGGACCCUCCACUCCUCCUGGUUGUAGCUCCCUUUCUCAUUUCGGAAACGAAAUGAGAACCGUUGCUACAAUAAGGCCGUCUGAAAAGAUGUGCCGCAACGCUCUGCCCCUUAAAGCUUCUGCUUUAAGGGGCAUCGUUUAUUUUUUU
DNA 1: CCGGGACCCTCCACTCCTCCTGGGCCCCAA
DNA 2: TTGGGGCCCAGGAGGAGTGGAGGGTCCCGG
B18 gave an indel frequency of 11.6 % indels.

B19: AAVS1 A10 (mixed)
RNA: GGGUCUGAGGGUGGAGGGACUGGUUGUAGCUCCCUUUCUCAUUUCGGAAACGAAAUGAGAACCGUUGCUACAAUAAGGCCGUCUGAAAAGAUGUGCCGCAACGCUCUGCCCCUUAAAGCUUCUGCUUUAAGGGGCAUCGUUUAUUUUUUU
DNA 1: GGGTCTGAGGGTGGAGGGACTGGGGGCC
DNA 2: GGCCCCCAGTCCCTCCACCCTCAGACCC
On to B19, for which the indel frequency is 30.1 % indels.
